Source: patent publication US20230051538A1 (UNIVERSITY OF BRITISH COLUMBIA, published 2023)
Where two headings read alike, the source gives them in different places. Where no end group is shown, it is not given here.

Experiments:
[1] = biological target: T1, cyclo(CGTKEQGGGG)-BSA (also: conjugated to BSA via maleimide-based coupling); test: indirect ELISA
T1 construct: also called (1,4)-C-BSA; 1,4-C-BSA
T1 peptide: cyclo(CGTKEQGGGG)

[2] = biological target: T2, Linear CGTKEQGGGG-BSA (also: conjugated to BSA); test: indirect ELISA
T2 construct: linear peptide-BSA screening antigen; also called (1,4)-L-BSA; 1,4-L-BSA
T2 peptide: CGTKEQGGGG

[3] = biological target: T3, cyclo(CGGTKEQGGGG)-BSA (also: conjugated to BSA via maleimide-based coupling); test: indirect ELISA
T3 construct: also called (2,4)-C-BSA; 2,4-C-BSA
T3 peptide: cyclo(CGGTKEQGGGG)

[4] = biological target: T4, alpha-synuclein oligomers (UniProt P37840 1-140); test: Millipore SMC, antibody-coated magnetic particles, detection with labeled 4D6
[5] = biological target: T5, alpha-synuclein sonicated preformed fibrils (soluble fibrils) (human, UniProt P37840 1-140); test: as above
[6] = biological target: T4, alpha-synuclein oligomers; test: cell-based or functional assay
[7] = biological target: T6, HSA (human, UniProt P02768 25-609); test: indirect ELISA
T6 construct: irrelevant antigen in ELISA; read as human serum albumin; also called Hum; SA; HAS

[8] = biological target: T7, Human Transferrin (human, UniProt P02787 20-698); test: indirect ELISA
T7 construct: irrelevant antigen in ELISA; also called HT
T7 sequence (P02787 20-698 limits assumed): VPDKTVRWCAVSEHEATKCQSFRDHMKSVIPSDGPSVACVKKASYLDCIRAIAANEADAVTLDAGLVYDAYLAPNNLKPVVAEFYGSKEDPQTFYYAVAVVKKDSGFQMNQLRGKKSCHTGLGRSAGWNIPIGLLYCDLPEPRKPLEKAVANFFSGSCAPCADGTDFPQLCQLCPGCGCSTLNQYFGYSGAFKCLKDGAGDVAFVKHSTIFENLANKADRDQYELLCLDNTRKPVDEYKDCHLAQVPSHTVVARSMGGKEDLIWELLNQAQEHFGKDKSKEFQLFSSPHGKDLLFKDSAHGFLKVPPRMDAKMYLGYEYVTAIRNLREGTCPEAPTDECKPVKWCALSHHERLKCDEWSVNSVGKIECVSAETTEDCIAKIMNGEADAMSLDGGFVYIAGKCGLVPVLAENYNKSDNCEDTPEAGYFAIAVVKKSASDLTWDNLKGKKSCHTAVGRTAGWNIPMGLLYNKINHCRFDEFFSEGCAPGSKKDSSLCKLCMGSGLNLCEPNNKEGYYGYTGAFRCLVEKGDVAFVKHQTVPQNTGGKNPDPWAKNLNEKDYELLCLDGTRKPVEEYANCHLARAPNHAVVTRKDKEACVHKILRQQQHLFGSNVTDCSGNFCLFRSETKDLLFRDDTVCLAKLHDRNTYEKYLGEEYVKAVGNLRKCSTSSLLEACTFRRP

[9] = biological target: T8, cyclo(CGGTKEQGGGG), free (cyclized via a head-to-tail (C-G) amide bond); test: indirect ELISA
T8 construct: free cyclic peptide, not conjugated; also called (2,4)-C-FREE
T8 peptide: CGGTKEQGGGG

[10] = biological target: T3, cyclo(CGGTKEQGGGG)-BSA; test: indirect ELISA
[11] = biological target: T9, Bovine serum albumin (BSA) (bovine, UniProt P02769 25-607); test: indirect ELISA
T9 construct: carrier protein alone as ELISA control
T9 sequence (P02769 25-607 limits assumed): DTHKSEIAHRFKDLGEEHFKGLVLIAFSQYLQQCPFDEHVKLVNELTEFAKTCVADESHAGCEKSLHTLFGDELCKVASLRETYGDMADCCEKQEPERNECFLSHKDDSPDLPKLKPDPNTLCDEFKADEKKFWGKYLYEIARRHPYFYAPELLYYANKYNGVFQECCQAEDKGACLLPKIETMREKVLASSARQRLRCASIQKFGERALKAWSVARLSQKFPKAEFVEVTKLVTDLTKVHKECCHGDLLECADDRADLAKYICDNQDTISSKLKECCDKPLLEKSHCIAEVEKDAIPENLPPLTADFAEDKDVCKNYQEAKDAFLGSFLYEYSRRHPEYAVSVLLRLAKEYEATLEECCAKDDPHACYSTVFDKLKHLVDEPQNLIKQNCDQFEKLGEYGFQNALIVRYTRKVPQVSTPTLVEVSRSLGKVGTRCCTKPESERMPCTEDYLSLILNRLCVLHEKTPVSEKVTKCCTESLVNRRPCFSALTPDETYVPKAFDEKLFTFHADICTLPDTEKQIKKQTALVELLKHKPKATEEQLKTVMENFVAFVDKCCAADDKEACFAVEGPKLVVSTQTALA

[12] = biological target: T10, cyclo(CGGTKEQGG)-BSA (also: conjugated to BSA via maleimide-based coupling); test: indirect ELISA
T10 construct: also called (2,2)-C-BSA; (2, 2) C-BSA
T10 peptide: cyclo(CGGTKEQGG)

[13] = biological target: T4, alpha-synuclein oligomers; test: SPR, antibody immobilized, kinetic fitting, 1:1 model
[14] = biological target: T5, alpha-synuclein sonicated preformed …; test: as above
[15] = biological target: T5, alpha-synuclein sonicated preformed …; test: cell-based or functional assay
[16] = biological target: T5, alpha-synuclein sonicated preformed …; test: SPR, antibody immobilized (~5000 RU), serial dilutions of analyte
[17] = biological target: T6, HSA; test: indirect ELISA; remark: listed apart in the source
[18] = biological target: T7, Human Transferrin; test: indirect ELISA; remark: listed apart in the source
[19] = biological target: T10, cyclo(CGGTKEQGG)-BSA; test: indirect ELISA
[20] = biological target: T1, cyclo(CGTKEQGGGG)-BSA; test: indirect ELISA
[21] = biological target: T11, Linear CGGTKEQGGGG-BSA (also: conjugated to BSA); test: indirect ELISA
T11 construct: linear peptide-BSA screening antigen; also called (2,4)-L-BSA; 2,4-L-BSA
T11 peptide: CGGTKEQGGGG

[22] = biological target: T3, cyclo(CGGTKEQGGGG)-BSA; test: indirect ELISA
[23] = biological target: T12, Linear CGGTKEQGG-BSA (also: conjugated to BSA); test: indirect ELISA
T12 construct: linear peptide-BSA screening antigen; also called (2,2)-L-BSA; (2, 2) L-BSA
T12 peptide: CGGTKEQGG

[24] = biological target: T13, cyclo(CGGGEKTKGG)-BSA (also: conjugated to BSA via maleimide-based coupling); test: indirect ELISA
T13 construct: also called ASPEP(3,2)-C-BSA
T13 peptide: cyclo(CGGGEKTKGG)

[25] = biological target: T14, Linear CGGGEKTKGG-BSA (also: conjugated to BSA); test: indirect ELISA
T14 construct: linear peptide-BSA screening antigen; also called ASPEP(3,2)-L-BSA
T14 peptide: CGGGEKTKGG

[26] = biological target: T7, Human Transferrin; test: indirect ELISA; remark: listed apart in the source
[27] = biological target: T15, human complement factor H (HCFH) (human, UniProt P08603 19-1231); test: indirect ELISA
T15 construct: unrelated protein in ELISA
T15 sequence (P08603 19-1231 limits assumed): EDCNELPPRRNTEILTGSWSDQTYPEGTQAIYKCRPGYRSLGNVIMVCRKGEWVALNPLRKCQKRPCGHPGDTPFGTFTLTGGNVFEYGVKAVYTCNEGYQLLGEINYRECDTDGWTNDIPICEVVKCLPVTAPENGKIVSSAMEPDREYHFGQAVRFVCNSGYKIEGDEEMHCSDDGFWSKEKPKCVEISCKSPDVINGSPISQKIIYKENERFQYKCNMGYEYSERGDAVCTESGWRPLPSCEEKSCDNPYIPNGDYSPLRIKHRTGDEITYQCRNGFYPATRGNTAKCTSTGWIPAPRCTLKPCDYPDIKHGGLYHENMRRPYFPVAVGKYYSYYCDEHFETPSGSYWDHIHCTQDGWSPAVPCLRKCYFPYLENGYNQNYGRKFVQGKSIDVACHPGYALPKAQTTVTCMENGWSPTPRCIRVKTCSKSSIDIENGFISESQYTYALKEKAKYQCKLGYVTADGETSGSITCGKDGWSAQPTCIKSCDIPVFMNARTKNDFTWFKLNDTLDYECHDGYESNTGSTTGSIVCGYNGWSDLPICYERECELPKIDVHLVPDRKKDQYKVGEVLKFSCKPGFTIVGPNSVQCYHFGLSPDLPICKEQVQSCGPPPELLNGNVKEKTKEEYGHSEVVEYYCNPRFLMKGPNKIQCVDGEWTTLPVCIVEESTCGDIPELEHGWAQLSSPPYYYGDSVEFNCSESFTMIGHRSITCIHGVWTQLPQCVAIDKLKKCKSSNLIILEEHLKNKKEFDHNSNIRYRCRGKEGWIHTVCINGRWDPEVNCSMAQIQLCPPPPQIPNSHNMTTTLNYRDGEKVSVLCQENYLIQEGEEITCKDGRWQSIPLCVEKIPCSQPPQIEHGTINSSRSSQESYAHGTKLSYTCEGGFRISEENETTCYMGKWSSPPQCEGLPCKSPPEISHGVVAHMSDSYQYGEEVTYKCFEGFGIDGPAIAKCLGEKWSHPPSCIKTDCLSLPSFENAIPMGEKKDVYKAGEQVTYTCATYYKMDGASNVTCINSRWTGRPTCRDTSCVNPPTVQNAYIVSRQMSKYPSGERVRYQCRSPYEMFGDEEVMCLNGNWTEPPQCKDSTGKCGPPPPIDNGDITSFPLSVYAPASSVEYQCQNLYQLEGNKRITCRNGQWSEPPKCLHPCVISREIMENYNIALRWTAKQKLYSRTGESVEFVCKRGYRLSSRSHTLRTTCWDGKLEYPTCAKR

[28] = biological target: T16, cyclo(CGGGGEKTKGG), free (cyclized via a head-to-tail (C-G) amide bond); test: indirect ELISA
T16 construct: free cyclic 4,2 construct; also called 4,2-Free-C
T16 peptide: CGGGGEKTKGG

[29] = biological target: T9, Bovine serum albumin (BSA); test: indirect ELISA; remark: listed apart in the source
[30] = biological target: T17, cyclo(CGGGGEKTKGG)-BSA (also: conjugated to BSA); test: indirect ELISA
T17 construct: also called ASPEP(4,2)-C-BSA
T17 peptide: cyclo(CGGGGEKTKGG)

[31] = biological target: T18, cyclo(CGTKEQGGGG), free (cyclized via a head-to-tail (C-G) amide bond); test: indirect ELISA
T18 construct: free cyclic peptide, not conjugated; also called (1,4)-C-Free
T18 peptide: CGTKEQGGGG

[32] = biological target: T9, Bovine serum albumin (BSA); test: indirect ELISA; remark: listed apart in the source
[33] = biological target: T18, cyclo(CGTKEQGGGG), free; test: indirect ELISA
[34] = biological target: T13, cyclo(CGGGEKTKGG)-BSA; test: indirect ELISA
[35] = biological target: T7, Human Transferrin; test: indirect ELISA; remark: listed apart in the source
[36] = biological target: T15, human complement factor H (HCFH); test: indirect ELISA; remark: listed apart in the source
[37] = biological target: T9, Bovine serum albumin (BSA); test: indirect ELISA; remark: listed apart in the source
[38] = biological target: T17, cyclo(CGGGGEKTKGG)-BSA; test: indirect ELISA
[39] = biological target: alpha-synuclein in Lewy Body Disease (LBD/DLB) brain (human, UniProt P37840 1-140); test: dot blot signal on LBD brain extract over control brain extract
[40] = biological target: T5, alpha-synuclein sonicated preformed …
[41] = biological target: T4, alpha-synuclein oligomers; test: SPR, antibody immobilized, kinetic fitting, 1:1 model; antigen form: oligomers

B1: 9D8 (antibody, V domains shown)
VH: QVTLKESGPGILQPSQTLSLTCSFSGFSLSTSGMGVGWIRQPSGKGLEWLAHIWWDGDKRYNPALRSRLTISKDTSSNQVFLKIASVDTADTATYYCTRIVVPNFLFTYWGQGTLVTVSA
VL: DVLMTQTPLSLPVSLGDQASISCRSSQSIVQSNGNTYLEWYLQKPGQSPNLLIYKVSNRFSGVPDRFSGSGSGTDFTLKISRVEAEDLGVYYCFQGSHVPFTFGSGTKLEIK
- ELISA reading [1]: 0.048
- ELISA reading [2]: 0.043
- ELISA reading [3]: 0.726
- fold selectivity for oligomers versus monomers (from LLoQ) [4]: 9300 fold
- fold selectivity for fibrils versus monomers (from LLoQ) [5]: 93300 fold
- dopaminergic neuron survival, antibody at 250 nM [6]: 96.5 % of the control
- ELISA reading [7]: 0.054
- ELISA reading [8]: 0.06
- ELISA reading [9]: 0.227
- ELISA reading [10]: 1.18
- ELISA reading [11]: 0.055

B2: 12G1 (antibody, V domains shown)
VH: QIQLVQSGPELRKPGETVRISCKASGYTFTTAGMQWVQKMPGKGLKWIGWINTHSGVPKYAEDFKGRFAFSLETSASTAYLQISNLKNEDTATYFCARTSWAPYWGQGTLVTVSA
VL: not shown
- ELISA reading [12]: 1.61
- ELISA reading [1]: 2.07
- ELISA reading [3]: 0.756
- fold selectivity for oligomers versus monomers (from LLoQ) [4]: 35000 fold
- fold selectivity for fibrils versus monomers (from LLoQ) [5]: 175000 fold
- Kd [13]: 1.61 µM
- koff [13]: 0.00155 s⁻¹
- kon [13]: 966 M⁻¹ s⁻¹
- Kd [14]: 0.02 µM
- koff [14]: 5.62e-05 s⁻¹
- kon [14]: 2820 M⁻¹ s⁻¹
- dopaminergic neuron survival, antibody at 250 nM [6]: 90.6 % of the control
- endogenous phosphorylated α-syn aggregates in neurons exposed to PFFs, antibody at 0.05 µM [15]: 148 % of the control
- ELISA reading [7]: 0.052
- ELISA reading [8]: 0.071
- ELISA reading [9]: 0.437
- ELISA reading [10]: 1.01
- ELISA reading [11]: 0.06
- fold binding affinity, soluble fibril relative to monomer [16]: > 50 fold

B3: 2E9 (antibody, V domains shown)
VH: EVKLLESGGGLVQPGGSLKLSCAASGFDFSRYWMNWVRQAPGKGLEWIGEINPHSSTINYAPSLKDKFIISRDNAKNTLYLQMSKVRSEDTALYYCGRGDYVDYWGLGTTLTVSS
VL: DIVMSQSPSSLAVSVGEKVTMSCKSSQSLLYSRNQKNYLAWYQQKPGQSPKLLIYWASTRESGVPDRFTGSGSGTDFTLTISSVKADDLAVYYCQQYYSYPRTFGGGTKLEIK
notes: also called test clone 2E9; test mAb 2E9
- ELISA reading [17]: 0.044
- ELISA reading [18]: 0.054
- Kd [13]: 0.431 µM
- Kd [14]: 0.009 µM
- ELISA reading [19]: 0.047
- ELISA reading [20]: 1.91
- ELISA reading [21]: 0.048
- ELISA reading [22]: 0.055
- ELISA reading [23]: 0.051

B4: 11B6 (antibody, V domains shown)
VH: QVQLQQSGAELMKPGASVKISCKATGYTFSSYWVEWVKLRPGHGLEWIGEIFPGSGSANYNEKFKGKATFTADTSSNTAYMQLSSLTSEDSAVYYCTSRWYPDYFEYWGQGTTLTVSS
VL: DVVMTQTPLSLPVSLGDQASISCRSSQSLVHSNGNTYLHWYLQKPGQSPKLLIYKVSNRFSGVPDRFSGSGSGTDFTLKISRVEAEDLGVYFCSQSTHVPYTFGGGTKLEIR
- dopaminergic neuron survival, antibody at 250 nM [6]: 81 % of the control
- ELISA reading [24]: 0.047
- ELISA reading [25]: 0.044
- ELISA reading [26]: 0.051
- ELISA reading [27]: 0.042
- ELISA reading [28]: 1.27
- ELISA reading [29]: 0.041
- ELISA reading [30]: 1.59

B5: 10D5 (antibody, V domains shown)
VH: EVQLQQSGAELVRPGALVKLSCKGSGFNIKDYYMSWVKQRPEQGLEWIGWIDPENDNTIYDSKFQGKASITADTSSNTAYLQFSSLTPEDTAVYYCAMGGFTYWGQGTLVTVSA
VL: not shown
- ELISA reading [17]: 0.065
- ELISA reading [18]: 0.06
- ELISA reading [31]: 1.25
- ELISA reading [32]: 0.066
- fold selectivity for oligomers versus monomers (from LLoQ) [4]: 9300 fold
- fold selectivity for fibrils versus monomers (from LLoQ) [5]: 11200 fold
- dopaminergic neuron survival, antibody at 250 nM [6]: 88.9 % of the control
- ELISA reading [19]: 0.064
- ELISA reading [20]: 2.04
- ELISA reading [22]: 1.95
- ELISA reading [23]: 0.045
- ELISA reading [33]: 1.25

B6: 3C11 (antibody, V domains shown)
VH: EVQLQQSGAELVKPGASVKLSCTASGFNIKDTYIHWMKQRPEQGLEWIGRIDPANGNTKYDPEFQDKATIAADTSSNTAYLQLSSLTSEDTAVYYCSNWDYFDYWGQGTALTVSS
VL: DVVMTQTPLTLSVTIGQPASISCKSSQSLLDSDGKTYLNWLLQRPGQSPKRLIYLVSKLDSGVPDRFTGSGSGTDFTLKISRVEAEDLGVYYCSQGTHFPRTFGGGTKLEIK
- dopaminergic neuron survival, antibody at 50 nM [6]: 89.6 % of the control
- endogenous phosphorylated α-syn aggregates in neurons exposed to PFFs, antibody at 0.05 µM [15]: 153 % of the control
- ELISA reading [34]: 1.17
- ELISA reading [35]: 0.054
- ELISA reading [36]: 0.064
- ELISA reading [37]: 0.052
- ELISA reading [38]: 0.567
- Fold of reactivity LBD vs. Control (LBD / Control) [39]: 26.6 fold

B7: 12B12 (antibody, V domains shown)
VH: EVQLQQSGAELVKPGASVKLSCTASGFNIKDTYIHWVKQRPEQGLEWIGRIDPANGNTNYDPKFQDKATITADTSSNTAYLQFSSLTSEDTAVYYCSNWDYFDYWGQGTTLTVSS
VL: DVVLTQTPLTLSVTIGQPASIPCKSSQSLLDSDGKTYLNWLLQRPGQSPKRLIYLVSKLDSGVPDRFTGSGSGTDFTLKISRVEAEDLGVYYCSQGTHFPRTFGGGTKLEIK
- Kd [40]: 0.008 µM
- koff [13]: 0.0013 s⁻¹
- kon [13]: 1320 M⁻¹ s⁻¹
- koff [14]: 2.09e-05 s⁻¹
- kon [14]: 2530 M⁻¹ s⁻¹
- Kd [41]: 0.985 µM
- dopaminergic neuron survival, antibody at 250 nM [6]: 92.6 % of the control
- endogenous phosphorylated α-syn aggregates in neurons exposed to PFFs, antibody at 0.05 µM [15]: 145 % of the control
- ELISA reading [34]: 1.28
- ELISA reading [35]: 0.045
- ELISA reading [36]: 0.059
- ELISA reading [37]: 0.055
- ELISA reading [38]: 0.851
- fold binding affinity, soluble fibril relative to monomer [16]: > 10 fold
- fold binding affinity, soluble fibril relative to tetramer [16]: > 20 fold
- Fold of reactivity LBD vs. Control (LBD / Control) [39]: 20.3 fold
